Here are results for one substance from US6897197.

This test concerns the target human MDM2, full length (CMV driven expression construct pCHDM1A) (human) (UniProt Q00987). In words: cell-based or functional assay.

Sequence of human MDM2, full length (CMV driven expression construct pCHDM1A) (human) (Q00987 whole entry): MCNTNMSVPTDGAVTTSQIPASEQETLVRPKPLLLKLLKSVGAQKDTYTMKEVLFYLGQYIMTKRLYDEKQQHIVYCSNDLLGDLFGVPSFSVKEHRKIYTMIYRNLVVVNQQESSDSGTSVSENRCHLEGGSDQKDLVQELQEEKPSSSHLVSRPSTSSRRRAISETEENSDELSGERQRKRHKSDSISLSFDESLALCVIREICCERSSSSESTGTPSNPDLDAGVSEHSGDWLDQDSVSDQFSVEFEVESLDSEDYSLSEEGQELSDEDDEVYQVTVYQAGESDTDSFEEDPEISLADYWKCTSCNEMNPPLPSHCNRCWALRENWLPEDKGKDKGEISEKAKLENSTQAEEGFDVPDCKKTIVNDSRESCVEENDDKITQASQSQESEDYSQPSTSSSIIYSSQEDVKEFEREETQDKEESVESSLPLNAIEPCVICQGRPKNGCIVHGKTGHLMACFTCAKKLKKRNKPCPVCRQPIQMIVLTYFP

With “mouse p19^ARF (complete ORF, expression construct in pVNic) (from UniProt Q64364 1-169)”, the transformed foci in MDM2/RAS REF cotransformation with p19^ARF added (40 foci without) was found to be 3 foci.
